The values below come from patent publication CN115368455A.

This test addresses SIRPg (UniProt Q9P1W8). The experiment in a line: SPR (BIAcore X-100); ratio of the affinity for SIRPa to that for SIRPg.

Bounds are passed on as bounds.

Chain of UniProt Q9P1W8 (Q9P1W8 29-360 limits assumed): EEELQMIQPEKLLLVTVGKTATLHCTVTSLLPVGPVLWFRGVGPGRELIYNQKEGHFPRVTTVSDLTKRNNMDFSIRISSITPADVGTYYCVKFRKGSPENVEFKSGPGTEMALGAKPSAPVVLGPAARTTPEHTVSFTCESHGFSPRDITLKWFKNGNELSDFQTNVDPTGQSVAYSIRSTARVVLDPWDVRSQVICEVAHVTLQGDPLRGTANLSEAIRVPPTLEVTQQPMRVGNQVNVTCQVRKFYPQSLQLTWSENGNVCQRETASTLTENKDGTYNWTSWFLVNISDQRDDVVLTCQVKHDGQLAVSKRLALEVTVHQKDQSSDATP

B1: KWAR23 (antibody, from another filing, V domains shown)
VH: EVQLQQSGAELVKPGASVKLSCTASGFNIKDYYIHWVQQRTEQGLEWIGRIDPEDGETKYAPKFQDKATITADTSSNTAYLHLSSLTSEDTAVYYCARWGAYWGQGTLVTVSS
VL: QIVLTQSPAIMSASPGEKVTLTCSASSSVSSSYLYWYQQKPGSSPKLWIYSTSNLASGVPARFSGSGSGTSYSLTISSMEAEDAASYFCHQWSSYPRTFGAGTKLELK
As for B1, the SIRPa/SIRPg亲和力比值 was less than 1.
